B1: RR1234L (peptide)
coil peptide: KGGGLEIRAAFLRRRNTALRTRVAELRQRVQRLRNIVSQYETRYGPL
notes: also called RR1234L (pI=12.4); basic coil peptide

Data set [1] is described as follows: homodimer, circular dichroism thermal denaturation; unit inferred. (Circular dichroism is the unequal absorption of left and right circularly polarised light.)
Data set [2] deals with the molecule itself. Description: homodimer, circular dichroism thermal denaturation; unit not given.
The target in data set [3] is B1. Description: heterodimer, circular dichroism thermal denaturation; unit inferred.

The Tm is the temperature at which the thermal transition is half complete.

As for B1, the Tm in data set [1] was 44 °C. In data set [2], this protein showed a ΔG of -9.4 and a ΔH of -66.

B2: EE1234L (peptide)
coil peptide: LEIEAAFLEQENTALETEVAELEQEVQRLENIVSQYETRYGPLGGGK
notes: also called EE1234L (pI=3.7); acidic coil peptide
Consider B2, for which the melting temperature (Tm) in data set [1] is 28 °C; in data set [3] it was above 90 °C. The ΔG in data set [2] was -6.2. The ΔH in data set [2] was -45.

Values taken from patent US20120040900A1 (BRIGHAM AND WOMEN S HOSPITAL, published 2012).
